In experiment [1] the target is T1, IYO fused to split YFP (nYFP or cYFP) (Arabidopsis thaliana, UniProt Q8GYU3 1-1465).
T1 construct: BiFC construct expressed in Nicotiana benthamiana leaf epidermal cells; The position of the YFP half varied between combinations, so the order of the parts is not fixed; also called split YFP fused to IYO; not shown: nYFP or cYFP half of split YFP, fused at the N- or C-terminus (different combinations were used)
T1 sequence: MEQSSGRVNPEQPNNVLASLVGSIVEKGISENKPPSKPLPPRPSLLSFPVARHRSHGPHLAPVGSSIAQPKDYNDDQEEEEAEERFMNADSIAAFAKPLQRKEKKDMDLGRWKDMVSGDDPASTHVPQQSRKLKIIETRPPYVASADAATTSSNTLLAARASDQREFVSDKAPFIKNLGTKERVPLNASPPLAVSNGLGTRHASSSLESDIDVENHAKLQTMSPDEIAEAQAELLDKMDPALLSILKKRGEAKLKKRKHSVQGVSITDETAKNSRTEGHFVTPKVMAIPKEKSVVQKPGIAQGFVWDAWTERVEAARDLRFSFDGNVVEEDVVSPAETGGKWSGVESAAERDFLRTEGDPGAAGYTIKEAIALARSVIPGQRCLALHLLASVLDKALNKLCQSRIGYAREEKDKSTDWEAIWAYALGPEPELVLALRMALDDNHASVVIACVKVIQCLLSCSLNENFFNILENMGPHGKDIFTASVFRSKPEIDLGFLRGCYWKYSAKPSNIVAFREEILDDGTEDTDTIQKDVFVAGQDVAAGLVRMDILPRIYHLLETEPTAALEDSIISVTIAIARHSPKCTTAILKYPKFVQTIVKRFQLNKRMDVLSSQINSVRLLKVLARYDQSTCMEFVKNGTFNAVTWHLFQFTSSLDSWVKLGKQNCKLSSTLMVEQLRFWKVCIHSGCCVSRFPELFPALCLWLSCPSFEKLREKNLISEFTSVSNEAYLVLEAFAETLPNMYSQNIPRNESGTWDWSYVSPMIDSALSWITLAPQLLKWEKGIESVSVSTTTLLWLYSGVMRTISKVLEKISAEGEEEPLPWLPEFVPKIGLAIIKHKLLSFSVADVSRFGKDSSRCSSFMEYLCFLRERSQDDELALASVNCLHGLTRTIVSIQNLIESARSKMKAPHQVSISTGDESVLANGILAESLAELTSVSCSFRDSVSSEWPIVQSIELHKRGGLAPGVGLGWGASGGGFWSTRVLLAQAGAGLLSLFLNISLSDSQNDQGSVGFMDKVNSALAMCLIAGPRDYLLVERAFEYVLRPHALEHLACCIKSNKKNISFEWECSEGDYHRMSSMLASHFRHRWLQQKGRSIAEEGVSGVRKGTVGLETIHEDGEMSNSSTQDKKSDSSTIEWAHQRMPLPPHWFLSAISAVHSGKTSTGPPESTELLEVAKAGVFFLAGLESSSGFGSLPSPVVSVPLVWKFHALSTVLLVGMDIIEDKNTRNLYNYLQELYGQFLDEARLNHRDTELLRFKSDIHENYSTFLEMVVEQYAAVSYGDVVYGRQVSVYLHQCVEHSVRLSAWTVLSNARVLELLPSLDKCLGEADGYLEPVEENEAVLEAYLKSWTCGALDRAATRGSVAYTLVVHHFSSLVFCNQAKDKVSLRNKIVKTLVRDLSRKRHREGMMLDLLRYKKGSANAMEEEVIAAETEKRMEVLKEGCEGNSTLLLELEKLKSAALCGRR
The experiment can be described thus: BiFC context, truncated AtRTR1. An excerpt:
(§1) Applicants tested for the in vivo interaction between IYO and AtRTR1 through a bimolecular fluorescence complementation assay in epidermal cells from Nicotiana benthamiana leaves.

Experiment [2] concerns the target T1, IYO fused to split YFP (nYFP or cYFP). Kind of experiment: BiFC, split YFP in Nicotiana benthamiana leaves.
From the text: Although the bulk of AtRTR1 is present in the cytosol, we found high levels of nuclear fluorescence reconstitution when split YFP fused to IYO and AtRTR1 was expressed in Nicotiana benthamiana leaves (FIGS. 12-14). This confirms that IYO and AtRTR1 interact physically, and that they do so in the nucleus. […] To test this, Applicants analyzed the subcellular distribution of AtRTR1 in the presence or absence of co-expressed IYO. These experiments confirmed that co-expressed IYO increases the accumulation of AtRTR1 in the nucleus.
as §1

Experiment [3] shares this target. The experiment can be described thus: BiFC (split YFP) in Nicotiana benthamiana leaf cells.
From the text: as §1

Results on 4 molecules are retold here after patent publication US20140366224A1 (CONSEJO SUPERIOR DE INVESTIGACIONES CIENTIFICAS, published 2014).

B1: C-terminal half of AtRTR1 (aa 305-735) (other, not shown: large carriers)
chain: EMGLASSAMMSDGYGVEYSVSKQPQCSMEDSLSCKLKGDLQTLDGKNTLSGSSSGSNTKGSKTKPEKSRKKIISVEYHANSYEDGEEILAAESYERHKAQDVCSSSEIVTKSCLKISGSKKLSRSVTWADQNDGRGDLCEVRNNDNAAGPSLSSNDIEDVNSLSRLALAEALATALSQAAEAVSSGNSDASDATAKAGIILLPSTHQLDEEVTEEHSEEEMTEEEPTLLKWPNKPGIPDSDLFDRDQSWFDGPPEGFNLTLSNFAVMWDSLFGWVSSSSLAYIYGKEESAHEEFLLVNGKEYPRRIIMVDGLSSEIKQTIAGCLARALPRVVTHLRLPIAISELEKGLGSLLETMSLTGAVPSFRVKEWLVIVLLFLDALSVSRIPRIAPYISNRDKILEGSGIGNEEYETMKDILLPLGRVPQFATRSGA
notes: also called truncated C-terminal half of AtRTR1; C-terminal half of RTR1
With B1, in experiment [1], the binding result is “binds”.

B2: AtRTR1 (At5g26760) full-length, fused to split YFP (nYFP or cYFP) (other)
chain: MAKDNEAIAINDAVHKLQLYMLENTTDQNQLFAARKLMSRSDYEDVVTERAIAKLCGYTLCQRFLPSDVSRRGKYRISLKDHKVYDLQETSKFCSAGCLIDSKTFSGSLQEARTLEFDSVKLNEILDLFGDSLEVKGSLDVNKDLDLSKLMIKENFGVRGEELSLEKWMGPSNAVEGYVPFDRSKSSNDSKATTQSNQEKHEMDFTSTVIMPDVNSVSKLPPQTKQASTVVESVDGKGKTVLKEQTVVPPTKKVSRFRREKEKEKKTFGVDGMGCAQEKTTVLPRKILSFCNEIEKDFKNFGFDEMGLASSAMMSDGYGVEYSVSKQPQCSMEDSLSCKLKGDLQTLDGKNTLSGSSSGSNTKGSKTKPEKSRKKIISVEYHANSYEDGEEILAAESYERHKAQDVCSSSEIVTKSCLKISGSKKLSRSVTWADQNDGRGDLCEVRNNDNAAGPSLSSNDIEDVNSLSRLALAEALATALSQAAEAVSSGNSDASDATAKAGIILLPSTHQLDEEVTEEHSEEEMTEEEPTLLKWPNKPGIPDSDLFDRDQSWFDGPPEGFNLTLSNFAVMWDSLFGWVSSSSLAYIYGKEESAHEEFLLVNGKEYPRRIIMVDGLSSEIKQTIAGCLARALPRVVTHLRLPIAISELEKGLGSLLETMSLTGAVPSFRVKEWLVIVLLFLDALSVSRIPRIAPYISNRDKILEGSGIGNEEYETMKDILLPLGRVPQFATRSGA
notes: Wild-type full-length AtRTR1 in BiFC in Nicotiana benthamiana leaves; The position of the YFP half varied; also called split YFP fused to AtRTR1; not shown: nYFP or cYFP half of split YFP, fused at the N- or C-terminus (different combinations were used)
For the molecule B2, the binding result in experiment [2] is “binds”.

B3: full-length AtRTR1 C56A/C61A (other, not shown: large carriers)
chain: MAKDNEAIAINDAVHKLQLYMLENTTDQNQLFAARKLMSRSDYEDVVTERAIAKLAGYTLAQRFLPSDVSRRGKYRISLKDHKVYDLQETSKFCSAGCLIDSKTFSGSLQEARTLEFDSVKLNEILDLFGDSLEVKGSLDVNKDLDLSKLMIKENFGVRGEELSLEKWMGPSNAVEGYVPFDRSKSSNDSKATTQSNQEKHEMDFTSTVIMPDVNSVSKLPPQTKQASTVVESVDGKGKTVLKEQTVVPPTKKVSRFRREKEKEKKTFGVDGMGCAQEKTTVLPRKILSFCNEIEKDFKNFGFDEMGLASSAMMSDGYGVEYSVSKQPQCSMEDSLSCKLKGDLQTLDGKNTLSGSSSGSNTKGSKTKPEKSRKKIISVEYHANSYEDGEEILAAESYERHKAQDVCSSSEIVTKSCLKISGSKKLSRSVTWADQNDGRGDLCEVRNNDNAAGPSLSSNDIEDVNSLSRLALAEALATALSQAAEAVSSGNSDASDATAKAGIILLPSTHQLDEEVTEEHSEEEMTEEEPTLLKWPNKPGIPDSDLFDRDQSWFDGPPEGFNLTLSNFAVMWDSLFGWVSSSSLAYIYGKEESAHEEFLLVNGKEYPRRIIMVDGLSSEIKQTIAGCLARALPRVVTHLRLPIAISELEKGLGSLLETMSLTGAVPSFRVKEWLVIVLLFLDALSVSRIPRIAPYISNRDKILEGSGIGNEEYETMKDILLPLGRVPQFATRSGA
notes: The putative zinc-coordinating cysteines are substituted by alanine
Turning to B3, in experiment [3], the binding result is “no binding”.

B4: full-length AtRTR1 C94A/C98A (other, not shown: large carriers)
chain: MAKDNEAIAINDAVHKLQLYMLENTTDQNQLFAARKLMSRSDYEDVVTERAIAKLCGYTLCQRFLPSDVSRRGKYRISLKDHKVYDLQETSKFASAGALIDSKTFSGSLQEARTLEFDSVKLNEILDLFGDSLEVKGSLDVNKDLDLSKLMIKENFGVRGEELSLEKWMGPSNAVEGYVPFDRSKSSNDSKATTQSNQEKHEMDFTSTVIMPDVNSVSKLPPQTKQASTVVESVDGKGKTVLKEQTVVPPTKKVSRFRREKEKEKKTFGVDGMGCAQEKTTVLPRKILSFCNEIEKDFKNFGFDEMGLASSAMMSDGYGVEYSVSKQPQCSMEDSLSCKLKGDLQTLDGKNTLSGSSSGSNTKGSKTKPEKSRKKIISVEYHANSYEDGEEILAAESYERHKAQDVCSSSEIVTKSCLKISGSKKLSRSVTWADQNDGRGDLCEVRNNDNAAGPSLSSNDIEDVNSLSRLALAEALATALSQAAEAVSSGNSDASDATAKAGIILLPSTHQLDEEVTEEHSEEEMTEEEPTLLKWPNKPGIPDSDLFDRDQSWFDGPPEGFNLTLSNFAVMWDSLFGWVSSSSLAYIYGKEESAHEEFLLVNGKEYPRRIIMVDGLSSEIKQTIAGCLARALPRVVTHLRLPIAISELEKGLGSLLETMSLTGAVPSFRVKEWLVIVLLFLDALSVSRIPRIAPYISNRDKILEGSGIGNEEYETMKDILLPLGRVPQFATRSGA
notes: as for B3
Consider B4, for which the binding result in experiment [3] is recorded as “no binding”.
